Test [1] concerns the target FOLR1 on FOLR1-positive Igrov1 cells (UniProt P15328 25-234, limits assumed). The test can be described thus: cell-based or functional assay.
Test [2] has as its target T1, Murine folate receptor alpha (mouse, UniProt P35846 25-232).
T1 construct: Stably expressed on CHO cells (CHO-mFOLR1); also called mouse FOLR1; CHO-mFOLR1
The test can be described thus: FACS, CHO-mFOLR1 cells.

The target in test [3] is T2, Cynomolgus folate receptor alpha (cynomolgus monkey, UniProt P15328 25-234 (human entry)).
T2 construct: Stably expressed on CHO cells (CHO-cFOLR1); also called cynomolgus FOLR1; CHO-cFOLR1
The test can be described thus: FACS, CHO-cFOLR1 cells.

Test [4] addresses T3, Human folate receptor alpha (hFOLR1) (human, UniProt P15328 25-234).
T3 construct: Stably expressed on CHO cells (CHO-hFOLR1) for flow cytometry; endogenous on FOLR1-positive KB and Igrov1 cells in the killing assay; also called human FOLR1; FolRα
The experiment in a line: FACS, CHO-hFOLR1 cells. The method, then: CHO cells were transfected to stably express human (CHO-hFOLR1), cynomolgus (CHO-cFOLR1), or mouse (CHO-mFOLR1) target molecule FOLR1 on the cell surface. Parental CHO cells were used as a negative control to determine background binding levels. Parental CHO and stably transfected CHO-hFOLR1, CHO-cFOLR1, and CHO-mFOLR1 cells were cultured in Ham's F-12: high glucose DMEM (50:50) (Corning, Cellgro-Mediatech) supplemented with 10% heat-inactivated fetal bovine serum (Corning, Cellgro-Mediatech), 1% Penicillin/Streptomycin (Corning, Cellgro-Mediatech) and 2 mmol/L-glutamax (Life Technology).
A mixture of fluoresecent-labeled parental CHO cells and unlabeled CHO-hFOLRlcells were prepared as follows. Parental CHO cells were washed twice in PBS and incubated in PBS containing with 1 nM CellTrace™ Oregon Green488® (Life Technologies) at 37° C. for 30 minutes. Labeled parental CHO cells were then washed 2× with Ham's F-12 media and 2× with FACS buffer (PBS with 1% bovine serum albumin). Unlabeled CHO-hFOLR1 cells were similarly washed and prepared. Labeled parental CHO and unlabeled CHO-hFOLR1 cells were combined at 1:1 ratio and seeded at 50 μL per well (200,000 cells per well) in 96 well polypropylene plates. Cells were mixed with 50 μL of test antibodies (i.e., anti-FOLR1 variants) serially diluted in FACS buffer and incubated on ice for 60 mins. Cells were washed with FACS buffer and incubated on ice for 60 mins with 100 μL FACS buffer containing 2.5 μg/mL R-Phycoerythrin-conjugated goat anti-Human IgG (Jackson ImmunoResearch Laboratories, West Grove, Pa.). Cells were washed twice with FACS buffer, fixed in 2% paraformaldehyde in PBS (Santa Cruz Biotechnology; Dallas, Tex.) for 10 mins on ice in the dark, and analyzed using the BD LSR II Flow Cytometer (BD Biosciences; San Jose, Calif.). Data were analyzed using FlowJo® software (FlowJo, LLC; Ashland, Oreg.) to determine mean fluorescence intensities. Binding constants were calculated using the statistical software, GraphPad Prism (GraphPad Software; La Jolla, Calif.) using the nonlinear regression equation, one site-specific binding with Hill slope. Secondary antibody alone was used as a control, in addition to measuring non-specific antibody binding to CHO parental cells.

For test [5], the target named is T4, human FOLR1-HIS (human, UniProt P15328 25-234).
T4 construct: Soluble analyte of the Biacore assay; also called human folate receptor alpha; hFOLR1; not shown: HIS tag
The experiment in a line: SPR (Biacore), antibody captured on anti-Fc, FOLR1-HIS as analyte, 25 C. As for the experimental part:
Anti-Fc polyclonal antibodies were immobilized onto a CM5 chip (GE Life Sciences) using amine coupling chemistry (from Amine Coupling Kit, GE Life Sciences). The immobilization steps were carried out at a flow rate of 25 μL/min in 1×HBS-EP+buffer (GE Life Sciences; 10× Stock diluted before use). The sensor surfaces were activated for 7 min with a mixture of N-hydroxysuccinimide (NHS, 0.05 M) and 1-ethyl-3-(3-dimethylaminopropyl)-carbodiimide (EDC, 0.2 M). The anti-Fc polyclonal antibodies were injected over all 4 flow cells at a concentration of 25 μg/mL in 10 mM sodium acetate, pH 4.5, for 7 min. Ethanolamine (1 M, pH 8.5) was injected for 7 min to block any remaining activated groups.
Off-rate and kinetic binding experiments were performed at 25° C. using 1×HBS-EP+buffer. Test and control antibodies were injected over the anti-Fc surface at concentrations of 5-10 μg/mL for 12 seconds at a flow rate of 10 μL/min on flow cells 2, 3 and 4, followed by a buffer wash for 30 seconds at the same flow rate.
The data were fit with the Biacore T200 Evaluation software, using a 1:1 Langmuir binding model. KD (affinity, nM) was determined as a ratio of the kinetic rate constants calculated from the fits of the association and dissociation phases.

T1 sequence (P35846 25-232 limits assumed): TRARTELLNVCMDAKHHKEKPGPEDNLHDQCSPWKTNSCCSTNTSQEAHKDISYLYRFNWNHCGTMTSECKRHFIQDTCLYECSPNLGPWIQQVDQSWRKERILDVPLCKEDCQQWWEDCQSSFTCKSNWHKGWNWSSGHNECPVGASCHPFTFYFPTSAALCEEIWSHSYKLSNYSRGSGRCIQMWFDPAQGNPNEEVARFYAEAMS
T3 sequence (P15328 25-234 limits assumed): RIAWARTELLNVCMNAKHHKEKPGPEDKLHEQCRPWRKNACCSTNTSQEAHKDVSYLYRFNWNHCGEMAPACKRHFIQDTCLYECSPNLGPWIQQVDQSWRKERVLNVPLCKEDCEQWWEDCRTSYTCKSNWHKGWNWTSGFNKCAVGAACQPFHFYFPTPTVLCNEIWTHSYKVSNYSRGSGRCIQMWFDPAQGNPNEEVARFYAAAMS
Sequence of FOLR1 on FOLR1-positive Igrov1 cells (P15328 25-234 limits assumed): as above
T2 sequence (P15328 other isoform, or with tags, fused parts or gaps limits assumed): as the sequence (P15328 25-234 limits assumed) above, with I2T, W4R, R37K, Q117R, A146P, H171Y counted along it
T4 sequence (P15328 25-234 limits assumed): as the sequence (P15328 25-234 limits assumed) above

B1: SRP2060-E10 (antibody, V domains shown)
VH: EVQLLESGGGLVQPGGSLRLSCAFSGFSLSTFGMGVGWVRQAPGKGLEWVSHIWWDDDKYYHPALKGRFTISKDNSKNTVYLQMNSLRAEDTAVYYCGRNHFPHYYGSSHWYFNVWGQGTTVTVSS
VL: EIVMTQSPATLSLSPGERATLSCKASQDINSYLSWYQQKPGQAPRLLIYRANRLVDGIPARFSGSGSGTDYTLTISSLEPEDFAVYYCLQYDEFPYTFGGGTKVEIK
Regarding B1, in test [1], the “Igrov 2° Antibody Cell Killing, Nb-SC239: EC50” value is 61 pM and the “Igrov 2° Antibody Cell Killing, Nb-SC239: span (%)” value was determined as 68%.

B2: SRP2060-B01 (antibody, V domains shown)
VH: EVQLLESGGGLVQPGGSLRLSCALSGFSLSTFGMGVGWVRQATGKGLEWVSHIWWDDDKYYHPALKGRFTISKDNSKNTVHLQMNSLRAEDTAVYYCGRNHFPHYYGSSHWYFNVWGQGTTVTVSS
VL: DIQMTQSPSTLSASVGDRVTITCKASQDINSYLSWYQQKPGKAPKLLIYRANRLVDGVPSRFSGSGSGTEFTLTISSLQPDDFATYYCLQYDEFPYTFGGGTKVEIK
On to B2, for which, in test [1], the “Igrov 2° Antibody Cell Killing, Nb-SC239: EC50” value was 45 pM and the “Igrov 2° Antibody Cell Killing, Nb-SC239: span (%)” value came out at 76%.

B3: SRP2060-A06 (antibody, V domains shown)
VH: EVQLLESGGGLVQPGGSLRLSCAFSGFSLSTFGMGVGWVRQAPGKGLEWVGHIWWDDDKYYYPALKGRFTISKDNSKNTVYLQMNSLRAEDTAVYYCGRNHFPHYYGSSHWYFDVWGQGTTVTVSS
VL: DIQMTQSPSTLSASVGDRVTITCKASQDINSYLSWYQQKPGKAPKLLIYRANRLVDGVPSRFSGSGSGTEFTLTISSLQPDDFATYYCLQYDEFPYTFGGGTKVEIK
On to B3, for which, in test [1], the “Igrov 2° Antibody Cell Killing, Nb-SC239: EC50” value was determined as 13 pM and the “Igrov 2° Antibody Cell Killing, Nb-SC239: span (%)” value is 66%.

B4: SRP2060-E05 (antibody, V domains shown)
VH: EVQLLESGGGLVQPGGSLRLSCAFSGFSLSTFGMGVGWVRQAPGKGLEWVSHIWWDDDKYYHPALKGRFTVSKDNSKNTVYLQMNSLRAEDTAVYYCGRNHFPHYYGSSHWYFNVWGQGTTVTVSS
VL: EIVMTQSPATLSLSPGERATLSCKASQDINSYLSWYQQKPGQAPRLLIYRANRLVDGIPARFSGSGSGTDYTLTISSLEPEDFAVYYCLQYDEFPYTFGGGTKVEIK
As to B4, in test [1], the “Igrov 2° Antibody Cell Killing, Nb-SC239: EC50” value is 220 pM and the “Igrov 2° Antibody Cell Killing, Nb-SC239: span (%)” value was 71%.

B5: SRP1848-G07 (antibody, V domains shown)
VH: EVQLVESGGGLVQPGGSLRLSCAASGFNIHSTDIHWVRQAPGKGLEWVAYITPAGGATWYADSVKGRFTISADTSKNTAYLQMNSLRAEDTAVYYCARYPFWFAGYMDYWGQGTLVTVSS
VL: not shown
notes: VH/VL only; Fc-bearing IgG format with trastuzumab LC, HIS/FLAG-tagged, cell-free expressed; constant regions not tied; also called Antibody 51
Consider B5, for which the Bmax was found to be 1980 MFI in test [2], 13700 MFI in test [3] and 24900 MFI in test [4].

B6: SRP1848-G10 (antibody, V domains shown)
VH: EVQLVESGGGLVQPGSSLRLSCAASGFNIRSTDIHWVRQAPGKGLEWVAYITPAGGATYYADSVKGRFTISADTSKNTAYLQMNSLRAEDTAVYYCARYPYWFAGYIDYWGQGTLVTVSS
VL: not shown
notes: VH/VL only; Fc-bearing IgG format with trastuzumab LC, HIS/FLAG-tagged, cell-free expressed; constant regions not tied; also called Antibody 53
In the case of B6, the Bmax in test [2] was determined as 2890 MFI; in test [3] it was 14200 MFI; in test [4], 25300 MFI.

B7: SRP1848-G11 (antibody, V domains shown)
VH: EVQLVESGGGLVQPGGSLRLSCAASGFNISSTDIHWVRQAPGKGLEWVAYITPAGGATWYADSVKGRFTISADTSKNTAYLQMNSLRAEDTAVYYCARYPYWFSGYMDYWGQGTLVTVSS
VL: not shown
notes: VH/VL only; Fc-bearing IgG format with trastuzumab LC, HIS/FLAG-tagged, cell-free expressed; constant regions not tied; also called Antibody 54
As for B7, the values for the Bmax in test [2], in test [3] and in test [4] were 2740 MFI, 11800 MFI and 27200 MFI, respectively.

B8: SRP1848-G09 (antibody, V domains shown)
VH: EVQLVESGGGLVQPGGSLRLSCAASGFNIRGTDIHWVRQAPGKGLEWVAYITPAGGATFYADSVKGRFTISADTSKNTAYLQMNSLRAEDTAVYYCARHEYWFSGYMDYWGQGTLVTVSS
VL: not shown
notes: VH/VL only; Fc-bearing IgG format with trastuzumab LC, HIS/FLAG-tagged, cell-free expressed; constant regions not tied; also called Antibody 52
Regarding B8, the Bmax in test [2] was 2180 MFI; in test [3] it was 17700 MFI; in test [4], 25100 MFI.

B9: SRP1848-H01 (antibody, V domains shown)
VH: EVQLVESGGGLVQPGGSLRLSCAASGFNIRTQSIHWVRQAPGKGLEWIGDIFPIDGITDYADSVKGRFTISADTSKNTAYLQMNSLRAEDTAVYYCARGSWSWPSGMDYYLDYWGQGTLVTVSS
VL: not shown
notes: trastuzumab light chain; captured through Fc in SPR (IgG format); HIS- and FLAG-tagged; also called Antibody 55
In the case of B9, in test [5], the off-rate (koff) was 0.00139 s⁻¹ and the kon was 659000 M⁻¹ s⁻¹.

B10: SRP1848-E06 (antibody, V domains shown)
VH: EVQLVESGGGLVQPSGSLRLSCAASGFNINRYYIHWVRQAPGKGLEWVGGITPNDGYTDYADSVEGRFTTSADTSKNTAYLQMNSLRAEDTAVYYCARGTWSWPSGHSYYLDYWGQGTLVTVSS
VL: not shown
notes: VH/VL only; Fc-bearing IgG format with trastuzumab LC, HIS/FLAG-tagged, cell-free expressed; constant regions not tied; also called Antibody 35
In the case of B10, the results for the Bmax in test [2], in test [3] and in test [4] were 2350 MFI, 15800 MFI and 25600 MFI, respectively.

B11: SRP1848-A01 (antibody, V domains shown)
VH: EVQLVESGGGLVQPGGSLRLSCAASGFNITRYSIHWVRQAPGKGLEWVAGILPESGGTSYADSVKGRFTISADTSKNTAYLQMNSLRAEDTAVYYCARHIYPWDWFSNYVLDYWGQGTLVTVSS
VL: not shown
notes: VH/VL only; Fc-bearing IgG format with trastuzumab LC, HIS/FLAG-tagged, cell-free expressed; constant regions not tied; also called Antibody 1
As to B11, the Bmax worked out at 16500 MFI in test [2], 22600 MFI in test [3] and 25900 MFI in test [4].

Source of the values: US20190233512A1 (SUTRO BIOPHARMA, published 2019).
